Source: US20240400708A1
Changes are numbered by the printed parent chain. Numbers in names are those of the source. Each block holds one molecule with its values, some of them ahead of it.

Assays:
[1] = target: feline FcRn complex (FcRn-α subunit and β-microglobulin), biotin labeled (feline); experiment: SPR, pH 7.4
[2] = target: feline FcRn complex (FcRn-α subunit and β-microglobulin), biotin labeled (feline); experiment: SPR, pH 6
[3] = target: feline FcRn complex (FcRn-α subunit and β-microglobulin) (feline); experiment: SPR (Biacore), FcRn on SA chip, pH 6

Kd [1]: 94.8 nM | Kd [2]: 3.61 nM
Molecule: feline IgG1a S434Y/S434F (as printed) (antibody)

Kd [1]: 840 nM | Kd [2]: 6.22 nM
Molecule: feline IgG1a T403R (antibody)

Kd [1]: 2160 nM | Kd [2]: 44 nM
B3: feline IgG1a S254C (antibody, part only; not given: Variable domains, not shown: another chain or arm of the molecule)
constant: ASTTAPSVFPLAPSCGTTSGATVALACLVLGYFPEPVTVSWNSGALTSGVHTFPAVLQASGLYSLSSMVTVPSSRWLSDTFTCNVAHPPSNTKVDKTVRKTDHPPGPKPCDCPKCPPPEMLGGPSIFIFPPKPKDTLSICRTPEVTCLVVDLGPDDSDVQITWFVDNTQVYTAKTSPREEQFNSTYRVVSVLPILHQDWLKGKEFKCKVNSKSLPSPIERTISKAKGQPHEPQVYVLPPAQEELSRNKVSVTCLIKSFHPPDIAVEWEITGQPEPENNYRTTPPQLDSDGTYFVYSKLSVDRSHWQRGNTYTCSVSHEALHSHHTQKSLTQSPGK

Kd [1]: 12700 nM | Kd [2]: 893 nM
B7: feline IgG1a S252Y (antibody, part only; not given: Variable domains, not shown: another chain or arm of the molecule)
constant: B3 constant with S138Y, C140S

Kd [1]: 8410 nM | Kd [2]: 49.9 nM
B8: feline IgG1a S252H (antibody, part only; not given: Variable domains, not shown: another chain or arm of the molecule)
constant: B3 constant with S138H, C140S

Kd [3]: 25.3 nM
B10: feline IgG1a mutant ID No. 298: S428Y, Q311W, D312P, L314K (antibody, part only; not given: Variable domains, not shown: another chain or arm of the molecule)
constant: B3 constant with C140S, Q197W, D198P, L200K, S316Y

Kd [3]: 0.00402 nM
B11: feline IgG1a mutant ID No. 322: S428Y, D312P, S434Y, D399M, D401R (antibody, part only; not given: variable domains and light chain, not shown: another chain or arm of the molecule)
constant: B3 constant with C140S, D198P, D287M, D289R, S316Y, S322Y

Kd [3]: 6.07 nM
B12: feline IgG1a mutant ID No. 312: Q311K, D312P, L314K (antibody, part only; not given: Variable domains, not shown: another chain or arm of the molecule)
constant: B3 constant with C140S, Q197K, D198P, L200K

Kd [1]: 2960 nM | Kd [2]: 3.96 nM
B13: feline IgG1a D312P (antibody, part only; not given: Variable domains, not shown: another chain or arm of the molecule)
constant: B3 constant with C140S, D198P

Kd [3]: 2130 nM
B14: feline IgG1a mutant ID No. 314: Q311R, D312P, L314K (antibody, part only; not given: Variable domains, not shown: another chain or arm of the molecule)
constant: B3 constant with C140S, Q197R, D198P, L200K

Kd [1]: 41.5 nM | Kd [2]: 8.43 nM
B15: feline IgG1a L314K (antibody, part only; not given: variable domains and light chain, not shown: another chain or arm of the molecule)
constant: B3 constant with C140S, L200K

Kd [3]: 15.9 nM
B18: feline IgG1a mutant ID No. 307: D401R, T403R (antibody, part only; not given: Variable domains, not shown: another chain or arm of the molecule; small tags and cut ends)
constant: B3 constant with C140S, D289R, T291R

Kd [1]: 427 nM | Kd [2]: 50.3 nM
B19: feline IgG1a T256F (antibody, part only; not given: Variable domains, not shown: another chain or arm of the molecule)
constant: B3 constant with C140S, T142F

Kd [3]: 9.6 nM
B26: feline IgG1a mutant ID No. 309: P247V, T250Q (antibody, part only; not given: Variable domains, not shown: another chain or arm of the molecule; small tags and cut ends)
constant: B3 constant with P133V, T136Q, C140S

Kd [1]: 41.4 nM | Kd [2]: 5.53 nM
B27: feline IgG1a Q311Y (antibody, part only; not given: Variable domains, not shown: another chain or arm of the molecule)
constant: B3 constant with C140S, Q197Y

Kd [3]: 11.4 nM
B28: feline IgG1a mutant ID No. 315: Q311Y, D312P, L314K (antibody, part only; not given: Variable domains, not shown: another chain or arm of the molecule)
constant: B3 constant with C140S, Q197Y, D198P, L200K

Kd [1]: 46.9 nM | Kd [2]: 2.75 nM
B29: feline IgG1a S428L/S434Y (antibody, part only; not given: Variable domains, not shown: another chain or arm of the molecule; small tags and cut ends)
constant: B3 constant with C140S, S316L, S322Y

Kd [3]: 18.9 nM
B30: feline IgG1a mutant ID No. 313: Q311M, D312P, L314K (antibody, part only; not given: Variable domains, not shown: another chain or arm of the molecule)
constant: B3 constant with C140S, Q197M, D198P, L200K

Kd [1]: 18700 nM | Kd [2]: 16.4 nM
B31: feline IgG1a S428Y (antibody, part only; not given: Variable domains, not shown: another chain or arm of the molecule)
constant: B3 constant with C140S, S316Y

Kd [1]: 5960 nM | Kd [2]: 123 nM
B32: feline IgG1a S252F (antibody, part only; not given: Variable domains, not shown: another chain or arm of the molecule)
constant: B3 constant with S138F, C140S

Kd [1]: 18.1 nM | Kd [2]: 1.69 nM
B33: feline IgG1a S252F/S434H (antibody, part only; not given: Variable domains, not shown: another chain or arm of the molecule)
constant: B3 constant with S138F, C140S, S322H

Kd [3]: 12.8 nM
B34: feline IgG1a mutant ID No. 306: D399M, T403R (antibody, part only; not given: Variable domains, not shown: another chain or arm of the molecule; small tags and cut ends)
constant: B3 constant with C140S, D287M, T291R

Kd [1]: 43.4 nM | Kd [2]: 10.2 nM
B35: feline IgG1a H436Y (antibody, part only; not given: Variable domains, not shown: another chain or arm of the molecule)
constant: B3 constant with C140S, H324Y

Further lines, the molecule ahead of its results:

Molecule: feline IgG1a S252H/S428M/D312P (ID No. 215) (antibody)
Kd [1]: 41.2 nM | Kd [2]: 3.24 nM

B1: feline IgG1a S434G (antibody, part only; not given: Variable domains, not shown: another chain or arm of the molecule)
constant: B3 constant with C140S, S322G
Kd [1]: 21.6 nM | Kd [2]: 9.58 nM

B2: feline IgG1a Q311W (antibody, part only; not given: Variable domains, not shown: another chain or arm of the molecule)
constant: B3 constant with C140S, Q197W
Kd [1]: 207 nM | Kd [2]: 4.18 nM

B4: feline IgG1a mutant ID No. 311: Q311H, D312P, L314K (antibody, part only; not given: Variable domains, not shown: another chain or arm of the molecule; small tags and cut ends)
constant: B3 constant with C140S, Q197H, D198P, L200K
Kd [3]: 1.44 nM

B5: feline IgG1a A431K (antibody, part only; not given: variable domains and light chain, not shown: another chain or arm of the molecule)
constant: B3 constant with C140S, A319K
Kd [1]: 9.39 nM | Kd [2]: 10.1 nM

B6: feline IgG1a S254V (antibody, part only; not given: Variable domains, not shown: another chain or arm of the molecule)
constant: B3 constant with C140V
Kd [1]: 49800 nM | Kd [2]: 9.91 nM

B9: feline IgG1a mutant ID No. 320: S428Y, D312P, S434P (antibody, part only; not given: Variable domains, not shown: another chain or arm of the molecule)
constant: B3 constant with C140S, D198P, S316Y, S322P
Kd [3]: 22.7 nM

B16: feline IgG1a S254I (antibody, part only; not given: Variable domains, not shown: another chain or arm of the molecule)
constant: B3 constant with C140I
Kd [1]: 16100 nM | Kd [2]: 12.4 nM

B17: feline IgG1a mutant ID No. 302: A431K, S434P (antibody, part only; not given: Variable domains, not shown: another chain or arm of the molecule)
constant: B3 constant with C140S, A319K, S322P
Kd [3]: 2.17 nM

B20: feline IgG1a S252Y/S434H (antibody, part only; not given: Variable domains, not shown: another chain or arm of the molecule)
constant: B3 constant with S138Y, C140S, S322H
Kd [1]: 11.7 nM | Kd [2]: 0.774 nM

B21: feline IgG1a mutant ID No. 304: D399M, D401R (antibody, part only; not given: variable domains and light chain, not shown: another chain or arm of the molecule; small tags and cut ends)
constant: B3 constant with C140S, D287M, D289R
Kd [3]: 5.43 nM

B22: feline IgG1a S252R/S434H (antibody, part only; not given: Variable domains, not shown: another chain or arm of the molecule)
constant: B3 constant with S138R, C140S, S322H
Kd [1]: 41.3 nM | Kd [2]: 2.21 nM

B23: feline IgG1a mutant ID No. 330: S428Y, D312P, S434Y, Q311K, L314K (antibody, part only; not given: Variable domains, not shown: another chain or arm of the molecule; small tags and cut ends)
constant: B3 constant with C140S, Q197K, D198P, L200K, S316Y, S322Y
Kd [3]: 0.00906 nM

B24: feline IgG1a S254P (antibody, part only; not given: Variable domains, not shown: another chain or arm of the molecule)
constant: B3 constant with C140P
Kd [1]: 5690 nM | Kd [2]: 27.3 nM

B25: feline IgG1a S252R/S428L/S434F (antibody, part only; not given: Variable domains, not shown: another chain or arm of the molecule)
constant: B3 constant with S138R, C140S, S316L, S322F
Kd [1]: 774 nM | Kd [2]: 6.43 nM
